# Measured values published in patent US20240010730A1 (SHANGHAI HUAOTA BIOPHARMACEUTICAL, published 2024).
# T1: Human TIGIT (SPR analyte, Example 7) (human, UniProt Q495A1 22-141, limits assumed)
# T1 sequence (looked up): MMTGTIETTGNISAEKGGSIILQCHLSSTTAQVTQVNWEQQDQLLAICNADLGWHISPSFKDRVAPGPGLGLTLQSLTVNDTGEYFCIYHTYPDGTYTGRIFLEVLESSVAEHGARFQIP
# B1: 900686 (bispecific antibody, human IgG1, kappa)
# heavy: not shown
# light: DIQMTQSPSSLSASVGDRVTITCRASQHVSTAVNWYQQKPGKAPKLLIYSASYLYSGVPSRFSGSRSGTDFTLTISSLQPEDFATYYCQQHYITPYTFGQGTKLEIKRTVAAPSVFIFPPSDEQLKSGTASVVCLLNNFYPREAKVQWKVDNALQSGNSQESVTEQDSKDSTYSLSSTLTLSKADYEKHKVYACEVTHQGLSSPVTKSFNRGEC
# notes: also called TIGIT-IgG-PD-L1-scFv
# B2: 900684 (bispecific antibody, human IgG1, kappa)
# heavy: not shown
# light: B1 light
# notes: as for B1
# B3: 900681 (bispecific antibody, human IgG1, kappa)
# heavy: not shown
# light: B1 light
# notes: as for B1
# B4: 900683 (bispecific antibody, human IgG1, kappa)
# heavy: not shown
# light: B1 light
# notes: as for B1
# B5: 900685 (bispecific antibody, human IgG1, kappa)
# heavy: not shown
# light: B1 light
# notes: as for B1
# B6: 900687 (bispecific antibody, human IgG1, kappa)
# heavy: not shown
# light: B1 light
# notes: as for B1
# Target: TIGIT on Jurkat-TIGIT-22G8 cells
# Experiment: cell-based or functional assay
row,Binder,"EC50 (nM), IL2 secretion of Jurkat-TIGIT-22G8 cells with PHA and CD155"
1,B1,12.9 nM
2,B2,11.1 nM
3,B3,8.96 nM
4,B4,8.64 nM
5,B5,12.1 nM
6,B6,11 nM

# Target: Human PD-L1 (SPR analyte, Example 7) (human, UniProt Q9NZQ7 19-238, limits assumed)
# Experiment: SPR (Biacore 8K), antibody captured by anti-human chip, antigen analyte, 1:1 model
# Protocol: (§1) The Anti-Human Capture-CMS chip (GE, #BR-1005-30) was prepared according to the method for conjugating the Human Antibody Capture Kit (GE, #BR-1008-39) to the Amino Conjugation Kit (GE, BR-1000-50).
# Chain of Human PD-L1 (SPR analyte, Example 7) (Q9NZQ7 19-238 limits assumed): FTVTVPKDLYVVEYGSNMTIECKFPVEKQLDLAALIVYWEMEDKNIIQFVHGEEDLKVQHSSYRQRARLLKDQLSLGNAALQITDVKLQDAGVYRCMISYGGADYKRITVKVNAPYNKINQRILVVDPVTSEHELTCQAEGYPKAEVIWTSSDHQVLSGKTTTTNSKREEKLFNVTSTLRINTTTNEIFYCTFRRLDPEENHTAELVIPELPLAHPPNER
Binder,Kd,koff,kon
B1,0.893 nM,0.000419 s⁻¹,469000 M⁻¹ s⁻¹
B2,1.29 nM,0.000376 s⁻¹,291000 M⁻¹ s⁻¹
B3,1.47 nM,0.000427 s⁻¹,290000 M⁻¹ s⁻¹
B4,1.05 nM,0.000492 s⁻¹,469000 M⁻¹ s⁻¹
B5,2.76 nM,0.000527 s⁻¹,191000 M⁻¹ s⁻¹
B6,1.37 nM,0.00038 s⁻¹,278000 M⁻¹ s⁻¹

# Target: T1, Human TIGIT (SPR analyte, Example 7)
# Experiment: as above
# Protocol: as §1
Binder,Kd,koff,kon
B1,0.0476 nM,0.0002 s⁻¹,4.19e+06 M⁻¹ s⁻¹
B2,0.0502 nM,0.000184 s⁻¹,3.67e+06 M⁻¹ s⁻¹
B3,0.0693 nM,0.000245 s⁻¹,3.53e+06 M⁻¹ s⁻¹
B4,0.0478 nM,0.000196 s⁻¹,4.1e+06 M⁻¹ s⁻¹
B5,0.0428 nM,0.00021 s⁻¹,4.89e+06 M⁻¹ s⁻¹
B6,0.0515 nM,0.000204 s⁻¹,3.96e+06 M⁻¹ s⁻¹
